The RNAGym collection of RNA variant scans (doi:10.1073/pnas.2313332121)

B1: TPR t1 (parent)
chain: GACCAAUCUGCCCUCAGAGCUCGAGAACAUCUUCGGAUGCAGAGGAGGCAGGCUUCGGUGGCGCGAUAGCGCCAACGUCCUCAACCUCCAAUGCAUCCCACCACAUGAUGAUGCCUGAAGAGCCUUGGUUUUUUG

Variants of: B1
Assay: polymerase ribozyme fitness, log enrichment relative to wild type (log ratio); higher = more active; in vitro selection for triplet polymerase activity
In short: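 For each subunit of a heterodimeric triplet polymerase ribozyme, a mutant library was built by PCR and transcribed, then taken through a single in vitro selection round in triplicate. Selection involved annealing to a biotinylated primer, the partner subunit and triplets, incubation frozen at −7 °C, gel excision of extended constructs, capture on streptavidin beads and RT-PCR. Genotypes were retained after Illumina sequencing of inputs and outputs only with ≥10 input reads and ≥1 read in each output. Fitness is defined as the logarithm of a genotype's enrichment relative to wild-type enrichment, using inverse-variance-weighted averages across replicates, with the logarithm taken to base 2.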

Question: With GACCAAUCUGCCCUCAGAGCUCGAGAACAUCUUGGGAUGCAGAGGAGGCAGGCUUCGGUGGCGCGAUAGCGCCAACGUCCUCAACCUCCAAUGCAUCCCACCACAUGAUGAUGCAUGAAGAGCCUUGGUUUUUUG [C34G C115A] as the variant, how does the “polymerase ribozyme fitness (log ratio)” value read?
Answer: -5.21

Question: Which “polymerase ribozyme fitness (log ratio)” value does the source give for GACCAAUCUGCCCUCAGAGCUCGAGAACAUCUUCGGAUGCAGAGGAGGCAGGCUUCGGUGGCGCGAUAGUGCCAACGACCUCAACCUCCAAUGCAUCCCACCACAUGAUGAUGCCUGAAGAGCCUUGGUUUUUUG [C70U U78A] here?
Answer: -1.17

Question: Which “polymerase ribozyme fitness (log ratio)” value does the source give for GACCAAUCUGCCCUCAGAGCUCGAGAACAUCUUCGGAUGCAGAGGAGGCAGGCUUCGGUUGCGCGAUAGCGCCAACGUCCUCAACCUCCAAUGCAUCCCACCACAUGAGGAUGCCUGAAGAGCCGUGGUGUUUUG [G60U U109G U125G U130G] here?
Answer: -5.39

Question: For GACCAAUCUGCCCUCAGAGCUCGAUAACAUCGUCGGAUGCAGAGGAGGCAGGCUUCGGUGGCGCGAUAGCGACAACGUCCUCAACCUCCAAUGCAUCCCACCACAUGAUAAUGCCUGAAGAGCCUUGGUUUUUUG [G25U U32G C72A G110A], which “polymerase ribozyme fitness (log ratio)” value is on record?
Answer: -6.9

Question: For GACCAACCUGCCCUCAGAGCUCGAGAACAUCUUCGGAUGGAGAGGAGGCAGGCUUCGGUGGCGCGAUAGCGCCAACGUCCUCAACCUCCAAUGCUUCCCACAACAUGAUGAUGCCUGAAGAGCCUUGGUUUUUUG [U7C C40G A95U C102A], which “polymerase ribozyme fitness (log ratio)” value is on record?
Answer: -5.2

Question: For GACCAAUCUGCCCUCAGAGCUCGAGAACAUCUUCGGAUGCAGAGGAGGCAGGGUUCGGUGGCGCGAUAGCGCCAACGUCCUCAACCUCCAAUGCAUACCACCACAUGAUGAUGCCUGAUGAGUCUUGGUUUUUUG [C53G C97A A119U C123U], which “polymerase ribozyme fitness (log ratio)” value is on record?
Answer: -4.34

Question: With GACCAAUCUGCCCUCAGUGCUCGAGAACAUCUUCGGAUGCAGAGGAGGCAGGCUUCGGUGGCGCGAUAGCGCCAACGUCCUCAACCUCCAAUGCAACCCACCACAUGAUGAUGCCUGAAGAGCCUUGGUUUUUUG [A18U U96A] as the variant, how does the “polymerase ribozyme fitness (log ratio)” value read?
Answer: -3.21

Question: With GACCAAUCUGCCCUCAGAGCUCGAGAACAUCUUCGGAUGCAGAGGAGGCAGGCUUCGGUGGCGCGAUAGCGCCAACGUCCUCAACCUCCUAUGCAUCCCACCACAUGAUGAUGCCUCCAGAGCCUUGGUUUUUUG [A90U G117C A118C] as the variant, how does the “polymerase ribozyme fitness (log ratio)” value read?
Answer: -3.48

Question: Which “polymerase ribozyme fitness (log ratio)” value does the source give for GACCAAUCUGCCCUCAUAGCUCGAGAACAUCUUCGGAUGCAGAGGAGGCAGGCUUCGGUGGCGCGAUAGCGCCAACGUCCUCAAACUCCAAUGCAUCCCACCACAUGAUGAUGCCUGAAGAGCCUUGGUUUUUUG [G17U C85A] here?
Answer: -3.6

Question: With GACCAAUCUGCCCUCAGAGCUCGAGAACAUCUUCGGAUGCAGAGGAGGCAGGAUUCGGUGGCGCGAUAGCUCCAACGUCCUCAACCUCCAAUGCAUCCCACCACAUGAUGAUGCCUGAAGAGCCUUGGUUUUUUG [C53A G71U] as the variant, how does the “polymerase ribozyme fitness (log ratio)” value read?
Answer: -1.5

Question: With GACCAAUCUGCCCUCAGAGUUCGAGAACAUCUUCGGAUGCAUAGGAGGCAGGCUUAGGUGGCGCGAUAGCGCCUACGUCCUCAACCUCCAAUGCAUCCCACCACAUGAUGAUGCGUGAAGAGCCUUGGUUUUUUG [C20U G42U C56A A74U C115G] as the variant, how does the “polymerase ribozyme fitness (log ratio)” value read?
Answer: -4.76

Question: For GACCAAUCUGCCCUCAGAGCUCGAGAACAUCUUCGGAUGCAGAGGAGGCAGGCUUCGGUGGCGCGAUAGCGCCAACGUCCUCAAUCACUAAUGCAUCCCACCACAUGAUGAUGCCUGAAGAGCCUUGGUUUUUUG [C85U U87A C89U], which “polymerase ribozyme fitness (log ratio)” value is on record?
Answer: -2.94

Question: Which “polymerase ribozyme fitness (log ratio)” value does the source give for GACCAAUCUGCCCUCAGAGCUCGAGAACAUCUUCGGAUGCAGAGGAGGCAGGAUUCGGUGGCGCGAUAGCGCCAACUUCCUCAACCUCCAAUGCAUCCCACUACAUGAUGAUGCCUGAAGAGCCUUGGUUUUUUG [C53A G77U C102U] here?
Answer: -2

Question: Which “polymerase ribozyme fitness (log ratio)” value does the source give for GACCAAUCUGCCCUCAGAGCUCGAGAACAUCUUCGGAUGCAGAGCAGGCAGGCUUCGGUGGCGCGAUAGCGCCAACAUCCUGAACCUCGAAUGCAUCCCACCACAUGAUGAUGCCUGAAGAGCCUUGGUUUUUUG [G45C G77A C82G C89G] here?
Answer: -3.97

Question: With GACCAAGCUCCCCUCAGAGCUCGAGAACAUCUUCGGAUGCAGAGUAGGCAGGCUUCGGUGGAGCGAUAGCGCCAACGUCCUCAACCUCCAAUGCAUCCCACCACAUGAUGAUGCUUGAAGAGCCUUGGUUUUUUG [U7G G10C G45U C62A C115U] as the variant, how does the “polymerase ribozyme fitness (log ratio)” value read?
Answer: -3.58

Question: With GACCUAUCUGCCCUCAGAGAUCGAGAACAUCUACGGGUGCAGAGGAGGGAGACUUCGGUGGCGCGAUAGCGCCAACGACCUCAACCUCCAAUGCAUCCCACCACAUGAUGUUGCCUGAAGAGCCUUGGUUUUUUG [A5U C20A U33A A37G C49G G52A U78A A111U] as the variant, how does the “polymerase ribozyme fitness (log ratio)” value read?
Answer: -5.53

Question: For GACCAACCUGCCCUCAGAGCUCGAGAACAUCUUCGAAUGCAGAGGAGGCAGGCUUCGGUGGCGCGAUAGCGCCAACGUCCUCAACCUCCAAUGCAUCCCACCACAUGAUGAUGCCCGUAGAGCCUUGGUUUAUUG [U7C G36A U116C A118U U132A], which “polymerase ribozyme fitness (log ratio)” value is on record?
Answer: -2.98

Question: Which “polymerase ribozyme fitness (log ratio)” value does the source give for GACCAAUCUGCCCUCAGAGCUCGAGAACAUCUUCGGAUGCAGAGGAGGCAGGCUUCGGUGGCGCGAUAGCGCCAACGUCCUCACCCUCCAAUGCAUCCCACCACAUGAUGAUGCCUGAAGAGCCUUGGUAUUUUG [A84C U130A] here?
Answer: -0.44

Question: For GACCAAUCUGCCCUCAGAGCUCGAGUACAUCUUCGGAUGCAGAGGAGGCAGGCUUCGGUGUCGCGAUAGCGCCAACGUCCUCAACCUCCAAUGCAUCCCACCACAUGAUGAUGCCUGAAGAGCCUUGGUUUUUUG [A26U G61U], which “polymerase ribozyme fitness (log ratio)” value is on record?
Answer: -3.08

Question: Which “polymerase ribozyme fitness (log ratio)” value does the source give for GACCAAUCUGCCCUCAGAGCUCGAGAACAUCUUCGGUUGCAGAGGAGGCAGGCUUCGGUUGCGCGAUAGCGCCAACGUCCUCAACCUCCAAUGCAUCCCACCACAUGAUGAUUCCUGAAGAGCCUUGGUUUUUUG [A37U G60U G113U] here?
Answer: -3.06

Question: Which “polymerase ribozyme fitness (log ratio)” value does the source give for GACCAAUCUGCCCUCAGAGCUCGAGAACAUCUUCGGAUGCAGAGGAGGCAGCCGUCGGUGGCGCGAUAACGCCAACGUCCUCAACCCCCAAUGCAUCCCUCCACAUGAUGAUGCCUGAAGAGCCUUGGUUUUUUG [G52C U54G G69A U87C A100U] here?
Answer: -6.57
